This assay addresses pre-fusion RSV F DS-Cav1 (human respiratory syncytial virus (hRSV A strain)). Put plainly: SEC; UPLC on a BEH200 size exclusion chromatography column (Waters Acquity UPLC); final purified protein after thrombin cleavage, 10 mM potassium phosphate pH 7.2. In general terms: Size exclusion chromatography separates by hydrodynamic size, large species first.

As a reminder, the stoichiometry N is the number of molecules, sites or subunits per partner or assembly. In the case of “pre-fusion RSV F DS-Cav1 (natural protein)”, the stoichiometry N was determined as 3.
